Test results reported in the supplement of paper PMC10567573.
± gives the standard deviation.

Experiment: protein stability index of a GFP-peptide fusion (GPS, HEK-293T) (PSI 1-6); higher = more stable
[1] = treatment: DMSO, c terminus: a fixed tail appended
[2] = treatment: MLN4924 1 uM, 8 h, c terminus: a fixed tail appended
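Note: 24-mer peptide tiles fused after GFP, lentivirally expressed, FACS-sorted into six equal bins by GFP/DsRed ratio, decoded by Illumina sequencing, PSI is the read-weighted mean bin number.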

Row | Sequence | protein stability index [1] | protein stability index [2] | protein stability index (treatment: DMSO, c terminus: native) | protein stability index (treatment: MLN4924 1 uM, 8 h, c terminus: native)
1 | AAARCVVLDCRPYLAFAASNVRGS [DUSP5] | 2.15 ± 0.55 | 2.2 ± 0.093 | – | –
2 | AAASPYIRTKLNYNPPKDDGSTYK [GAN] | 3.98 ± 0.11 | 3.79 ± 0.2 | – | –
3 | AAKIIPHSRVAKPHQREKIDKEIE [PLK2] | 5.02 ± 0.42 | 4.7 ± 0.4 | – | –
4 | AAKTLPGGAGKGRTPSAFPQTPAA [EHMT1] | 4.26 ± 0.33 | 4.39 ± 0.085 | – | –
5 | AAQSTKSPWNFLGDELYEQSDEEQ [CLPTM1] | 5.25 ± 0.19 | 5.35 ± 0.18 | – | –
6 | AAYSSILSSLGENPQRQGLLKTPW [GCH1] | 2.54 ± 0.22 | 2.55 ± 0.29 | – | –
7 | ADDAAAVAAKCPRLSECSSPPDYL [TRIB1] | 5.03 ± 0.79 | 5.22 ± 0.17 | – | –
8 | ADFEQKMLDSALRFQAMEETHLRH [FCHO1] | 3.88 ± 0.29 | 3.93 ± 0.24 | – | –
9 | ADFESEDEGEEFDDWEDDYDYPEE [EID1] | 4.62 ± 0.29 | 4.87 ± 0.35 | – | –
10 | ADGARSAVVAAGGGSSGQVTSNGS [CLPTM1] | 5.3 ± 0.065 | 5.09 ± 0.14 | – | –
11 | ADPLDTPPDSKEGIVVESNHDSHM [PDZK1] | 5.53 ± 0.1 | 5.36 ± 0.33 | – | –
12 | ADRAQKMDGESEEEQESVDTGEEE [EHMT1] | 5.78 ± 0.16 | 5.73 ± 0.32 | – | –
13 | ADSLQASMEKDATLNVDRKEKCVS [DLC1] | 5.35 ± 0.35 | 5.3 ± 0.25 | – | –
14 | AEITQIQSHISDMSVILSMDNNRN [KRT71] | 3.73 ± 0.16 | 3.7 ± 0.14 | – | –
15 | AENLDVKINENVAAGMRFPLPEAI [PCDHGA10] | 4.29 ± 0.2 | 4.28 ± 0.15 | – | –
16 | AEVVKILQTMLRQSAFLHLPLPEQ [INTS4] | 2.75 ± 0.51 | 2.89 ± 0.22 | – | –
17 | AFRYLSWILFPLLGCYAVYSLLYL [CLPTM1] | 2.29 ± 0.44 | 3.03 ± 0.66 | – | –
18 | AGEEDPSGMVTIITGLPLDNPSVL [SMG5] | 3.7 ± 0.18 | 3.75 ± 0.19 | – | –
19 | AGTGAQAGQLMGFFKGIDQDIERG [LYSMD4] | 4.01 ± 0.37 | 4.01 ± 0.29 | – | –
20 | AHIALETLEGHQRAIMAHMTVEEI [FLOT1] | 3.25 ± 0.29 | 3.51 ± 0.32 | – | –
21 | AHIRAERDILVEADGAWVVKMFYS [STK38L] | 2.24 ± 0.3 | 2.27 ± 0.2 | – | –
22 | AIAKQALKKPIKGKQAPRKKAQGK [KMT5A] | – | 4.02 ± 0.17 | – | –
23 | AIEHFQPNADLLFSDPSQSDPETK [FCHO1] | 5.5 ± 0.074 | 5.44 ± 0.25 | – | –

Row | Sequence | protein stability index [1] | protein stability index [2] | protein stability index (treatment: DMSO, c terminus: native) | protein stability index (treatment: MLN4924 1 uM, 8 h, c terminus: native)
24 | AILEMKWKVRAEKEACQREKELPA [ZBED2] | 3.47 ± 0.29 | 3.56 ± 0.55 | – | –
25 | AIQLLSRMEYVHSKNLIYRDVKPE [CSNK1G1] | 2.28 ± 0.2 | 2.33 ± 0.31 | – | –
26 | AISLSTGRESYIPGICVARVYHGW [SLA] | 2.92 ± 0.85 | 2.48 ± 0.92 | – | –
27 | AKECMLQEENKSLREENKALREEN [CBY2] | 5.55 ± 0.22 | 5.51 ± 0.2 | – | –
28 | ALAKKFIDKNTQLTLQVYREQADS [TRIM14] | 2.88 ± 0.31 | 3.09 ± 0.49 | – | –
29 | ALGNEGDTFHQDNQPSGLIRTYLG [RHOBTB3] | 3.48 ± 0.33 | 3.85 ± 0.37 | – | –
30 | ALLKFKPGAFIAGVPVQPVLIRYP [LPCAT4] | 2.54 ± 0.73 | 2.39 ± 0.7 | – | –
31 | ALQRLDLRNNQISHKGAEELALAL [LRRC45] | 3.22 ± 0.24 | 3.05 ± 0.43 | – | –
32 | ALRQTVEADVNGLRRVLDELTLAR [KRT16] | 3.18 ± 0.58 | 3.06 ± 0.33 | – | –
33 | ALSCHEQEMVVSSLVIGALLASLT [SLC2A12] | 3 ± 0.64 | 3.09 ± 0.29 | – | –
34 | ALSQLICFCRESRYMDQWVPVINL [GADD45A] | 2.95 ± 0.45 | 3.06 ± 0.76 | – | –
35 | ALTYACAGGYVDVVKVLLESGASI [ANKRD17] | 2.64 ± 0.33 | 2.79 ± 0.48 | – | –
36 | ALVRTRMQAQASIEGAPEVTMSSL [SLC25A25] | 3.6 ± 0.34 | 3.59 ± 0.33 | – | –
37 | ALVYLPGVIAAIVQLHNGTKYKKF [STEAP1] | 2.73 ± 0.44 | 2.75 ± 0.68 | – | –
38 | ALWQVLARDCFATGRHYWEVDVQE [TRIM14] | 2.4 ± 0.65 | 2.4 ± 0.24 | – | –
39 | AMQASKATKITLSAIYKWITDNFC [FOXJ1] | 2.28 ± 0.27 | 2.14 ± 0.23 | – | –
40 | ANPQYTVYSQASTMSIPVAMETDG [PPP2R5C] | 4.26 ± 0.33 | 4.41 ± 0.21 | – | –
41 | APDDSKAQAHRIHIDPEIQDGSPT [PDLIM4] | 5.59 ± 0.23 | 5.47 ± 0.12 | – | –
42 | APEYRGRTELLKDAIGEGKVTLRI [MOG] | 2.59 ± 0.2 | 2.72 ± 0.38 | – | –
43 | APHHHHHHSHSGPEISRIIVDPTT [PLK2] | 4.22 ± 0.12 | 4.12 ± 0.22 | – | –
44 | APLLRWVLTLSFLVATVAVGLYAM [HMOX1] | 2.84 ± 0.56 | 2.74 ± 0.69 | – | –
45 | APLVKTLEKEEEKDLVMYSKCQRL [CDC25B] | 4.69 ± 0.42 | 4.59 ± 0.052 | – | –
46 | AQDLGLKMTDLLSRRLQLGSEENG [PCDHGC5] | 3.94 ± 0.22 | 3.77 ± 0.19 | – | –

Row | Sequence | protein stability index [1] | protein stability index [2] | protein stability index (treatment: DMSO, c terminus: native) | protein stability index (treatment: MLN4924 1 uM, 8 h, c terminus: native)
47 | AQSRLEDPGQDLVPKQAIQVQEAD [DLX1] | 5.35 ± 0.18 | 5.32 ± 0.27 | – | –
48 | AQTPLHVAAETGHTSTARLLLHRG [RIPK4] | 3.89 ± 0.12 | 3.91 ± 0.38 | – | –
49 | ARGTPSPKRMPSGRGGRDRFTAES [FSD1] | 4.43 ± 0.3 | 4.69 ± 0.069 | – | –
50 | ATEQAATQESTFQELCEGLLEESD [NOP53] | 5.61 ± 0.19 | 5.58 ± 0.12 | – | –
51 | ATIVFATDFYLIFNDVAKFLKQGD [CMTM3] | 2.9 ± 0.91 | 2.77 ± 0.43 | – | –
52 | ATSESTTVEPGKLDVGATEGQDLQ [DRICH1] | 5.46 ± 0.27 | 5.5 ± 0.22 | – | –
53 | ATYCVRTFALYKNGSSEKREVRQF [PTPRD] | 2.44 ± 0.4 | 2.35 ± 0.39 | – | –
54 | AVAHMKYMGKGSMTGLALKHMFER [MATN2] | 2.07 ± 0.3 | 2.34 ± 0.26 | – | –
55 | AVDCKWYIRAPPRSKIYLRFLDYE [NETO1] | 2.43 ± 0.24 | 2.19 ± 0.38 | – | –
56 | AVDGILHMFTPKLDKMLDPQVWRE [SLC6A17] | 2.27 ± 0.34 | 2.53 ± 0.25 | – | –
57 | AVIYLKKTPEEAYRALLSGSNPPY [CDC14A] | 2.21 ± 0.44 | 2.15 ± 0.46 | – | –
58 | AVSCPYLPSNLLKKFRSSTSSSLG [KCNA4] | 2.54 ± 0.21 | 2.58 ± 0.2 | – | –
59 | CAGKAKRSGGHAPRVRELLLDALS [ESR2] | 2.38 ± 0.29 | 2.52 ± 0.25 | – | –
60 | CALEEYVRSQYPNQPTRFGKLLLR [NR2F2] | 2.22 ± 0.17 | 2.33 ± 0.25 | – | –
61 | CDKKAMVWDMRSGQCVQAFETHES [GNB5] | 3.67 ± 0.27 | 3.73 ± 0.29 | – | –
62 | CDYSQYFKTIEELRDKIMATTIDN [KRT15] | 3.28 ± 0.12 | 3.22 ± 0.17 | – | –
63 | CFIQSSHLIRHQITHTREEQPHGR [ZNF8] | 3.4 ± 0.12 | 3.37 ± 0.23 | – | –
64 | CGHTFCRLCLPALSQMGAQSSGKI [TRIM15] | 2.12 ± 0.42 | 2.36 ± 0.46 | – | –
65 | CKAFSTCVSHLIIVTVHYGCASFI [OR10K2] | 2.88 ± 0.54 | 3.01 ± 0.57 | – | –
66 | CKCSEGFVLAEDGRRCKKCTEGPI [MATN2] | 4.99 ± 0.2 | 5.41 ± 0.081 | – | –
67 | CLHHVHYLATEYLETHFRDVSSTE [GAN] | 2.37 ± 0.23 | 2.52 ± 0.54 | – | –
68 | CMPLVCTAIFYTLMTCEMLNRRNG [EDNRA] | 3.29 ± 0.24 | 3.58 ± 0.93 | – | –
69 | CNQCGKCFIQSSHLIRHQITHTRE [ZNF8] | 4.28 ± 0.19 | 4.47 ± 0.21 | – | –

Row | Sequence | protein stability index [1] | protein stability index [2] | protein stability index (treatment: DMSO, c terminus: native) | protein stability index (treatment: MLN4924 1 uM, 8 h, c terminus: native)
70 | CPLKNPTFLDYVRPRSWTCRYVF [SOAT1] | – | – | 3.22 ± 0.47 | 3.06 ± 0.42
71 | CQHLSSSAEELRKARSNSTLSKSE [KCNA3] | 5.01 ± 0.33 | 4.75 ± 0.26 | – | –
72 | CQSGYFSSMFSGSWKESSMNIIEL [GMCL1] | 2.53 ± 0.37 | 2.34 ± 0.77 | – | –
73 | CRERWHNHLNPEVKKSCWTEEEDR [MYBL2] | 4.2 ± 0.4 | 4.34 ± 0.25 | – | –
74 | CRLRCHPPRGPLAKHRLVPPAQGR [TRIM9] | 2.84 ± 0.14 | 3.47 ± 0.56 | – | –
75 | CSRTWTNRLCHQEMGSKKTVTQED [SPAG8] | 3.7 ± 0.13 | 3.74 ± 0.14 | – | –
76 | CSSSGKDGNLCLHVPNPPSGISFP [HESX1] | 3.15 ± 0.18 | 3.25 ± 0.33 | – | –
77 | CSWKGATKQRIQDQKVPYIFRDNQ [CHIT1] | 2.87 ± 0.24 | 3.14 ± 0.62 | – | –
78 | CTHCSKSFRQRAGLIMHQVTHFRG [ZNF449] | 2.46 ± 0.53 | 3.02 ± 0.52 | – | –
79 | DADILGLKKSNSAPSKKAAKDPGK [FBF1] | 5.18 ± 0.18 | 5.22 ± 0.42 | – | –
80 | DARYKLHHHLHKTLREITDQEHNV [TEKT4] | 3.77 ± 0.29 | 4.02 ± 0.14 | – | –
81 | DAVQTSLMDEGASSEKKRQSSADG [RBBP5] | 5.49 ± 0.26 | 5.48 ± 0.19 | – | –
82 | DDDFSIHAAHVVCRELGYVEAKSW [LOXL2] | 2.72 ± 0.24 | 2.83 ± 0.33 | – | –
83 | DEELHLLIISCRKLFYFKIWAFLD [FBXO39] | 2.75 ± 0.52 | 2.47 ± 0.69 | – | –
84 | DENSSDGRYVKENCKPLKSYMLQD [CLK3] | 4.57 ± 0.49 | 4.36 ± 0.11 | – | –
85 | DETFLATSFLQHPWDESGSGCLPP [FOXJ1] | 4.15 ± 0.16 | 4.11 ± 0.079 | – | –
86 | DFCEPSFVTGNCLEISPDCSQYDR [PCMTD2] | 4.38 ± 0.32 | 4.4 ± 0.22 | – | –
87 | DGSYALNGEYTLMPSPTDVVLPGA [ADAMTS4] | 4.4 ± 0.2 | 3.87 ± 0.36 | – | –
88 | DHEDFTGSSSLGFTSSPSPFSSSS [FCHO1] | 4.45 ± 0.15 | 4.37 ± 0.14 | – | –
89 | DHRGRMVKHQCCPGCGYFCTAGNF [EHMT1] | 2.79 ± 0.14 | 3.14 ± 0.17 | – | –
